Results on one sequence are retold here after paper PMC4595836.

This series addresses T1, ScbR (Streptomyces coelicolor A3(2) M145) (UniProt Q7AKF1).
T1 sequence: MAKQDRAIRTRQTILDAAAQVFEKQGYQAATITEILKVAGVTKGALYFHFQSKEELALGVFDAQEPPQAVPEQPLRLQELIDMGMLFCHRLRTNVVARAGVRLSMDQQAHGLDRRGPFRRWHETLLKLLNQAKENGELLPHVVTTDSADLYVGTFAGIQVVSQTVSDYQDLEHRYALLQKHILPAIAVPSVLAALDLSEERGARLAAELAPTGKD
The experiment in a line: DNase I footprinting. As to conditions: EMSA: 6-12 ng probe, ScbR 0.21-3.77 uM, ScbR2 0.207-4.15 uM; buffer, salt, pH and temperature not in material (as described in earlier work). In general terms: Mobility shift assays separate free from complexed probe on a gel.

For the sequence “CCCTCATGTCCGAACAGCTCGACACCGCCGTCGAAACAGACGGCAAGGGCGACCTCGCCACGTTGTTCAACGGTGGGGACACCTTCTCCCATTGAAAACCGGCGAGGAGGTTTGTTAATCCCATGTTCCCTGGACCGACCTGTTTCGAGATCGAGGAGGACAGTTGAGCGCCACTTCTGCCCCCGCACCCCAGCACGGCATGACCTGGCTGGGAGCCATCGTGGAGGACGGCTTCACGGAGACGTTGCAGGACGGGCTCAG (double strand) [sco6268 promoter footprint probe]”, the binding result is “binds”.
